# According to paper PMC10083601 (Proceedings of the National Academy of Sciences of the …, 2023):
# B1: Rabies virus (strain Nishigahara) P3 protein (natural protein)
# chain: MSRLHLDDGKLPDLGRMSKAGEGRHQEDFQMDEGEDPSLLFQSYLDNVGVQIVRQMRSGERFLKIWSQTVEEIISYVTVNFPNPSGRSSEDKSTQTTSQEPKKETTSTPSQRKSQSLKSRTMAQTASGPPSLEWSATNEEDDLSVEAEIAHQIAESFSKKYKFPSRSSGIFLYNFEQLKMNLDDIVKEAKNVPGVTRLAHDGSKLPLRCVLGWVALANSKKFQLLVEANKLNKIMQDDLNRYASC
# Molecular target: T1, N-terminally truncated tyrosine phosphorylated STAT1 (residues 136 to 750, N-terminally tagged with GB1) (UniProt P42224 136-750)
# T1 sequence: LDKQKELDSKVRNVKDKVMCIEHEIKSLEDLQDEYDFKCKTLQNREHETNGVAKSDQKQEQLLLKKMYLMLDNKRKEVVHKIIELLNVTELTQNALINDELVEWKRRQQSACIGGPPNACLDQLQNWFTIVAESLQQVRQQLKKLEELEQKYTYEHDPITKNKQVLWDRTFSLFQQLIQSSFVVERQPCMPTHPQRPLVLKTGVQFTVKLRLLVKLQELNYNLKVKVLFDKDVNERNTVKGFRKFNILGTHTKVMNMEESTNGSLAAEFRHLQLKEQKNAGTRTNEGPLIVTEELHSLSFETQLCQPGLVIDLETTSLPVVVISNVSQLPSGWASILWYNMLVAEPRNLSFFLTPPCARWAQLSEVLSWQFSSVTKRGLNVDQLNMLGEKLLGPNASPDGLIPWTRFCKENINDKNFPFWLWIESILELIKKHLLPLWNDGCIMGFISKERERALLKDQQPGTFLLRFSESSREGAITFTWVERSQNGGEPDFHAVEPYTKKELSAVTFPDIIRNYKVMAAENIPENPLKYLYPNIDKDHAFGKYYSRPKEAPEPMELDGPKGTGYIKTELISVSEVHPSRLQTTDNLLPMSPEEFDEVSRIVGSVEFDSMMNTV
# Experiment: ITC
binder,measurement,value
B1,Kd,0.8 µM
